Measured values: PMC11005723, “Development of Complementary Photo‐arginine/lysine to Promote Discovery of Arg/Lys hPTMs Interactomes” (Advanced Science, 2024)
Non-standard residues stand in square brackets, D forms with d. No end group written: not given here. Arg(Me2a) = CN(C)C(=N)NCCC[C@H](N)C(=O)O

T1: PHD domain of UHRF1 (UHRF1PHD) (structural Zn2+ ions bound; limits are not given, so they follow the usual UHRF1 PHD structural constructs (about 298-366), which include the N-terminal pre-PHD zinc site; the UniProt PHD-type featu)
T1 chain: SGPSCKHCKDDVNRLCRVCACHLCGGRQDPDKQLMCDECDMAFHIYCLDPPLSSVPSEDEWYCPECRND

B1: native H3R2 peptide (H3_(1‐15) without diazirine and biotin) (peptide)
peptide: ARTKQTARKSTGGKA-NH2
notes: Rink amide resin was used for all peptides, so the C-terminus is probably an amide; also called native H3_(1‐15) peptide; source: synthetic peptide (Fmoc solid-phase synthesis)
B2: native H3R2me2a peptide (H3_(1‐15) without diazirine and biotin) (peptide)
peptide: A[Arg(Me2a)]TKQTARKSTGGKA-NH2
notes: Rink amide resin was used for all peptides, so the C-terminus is probably an amide; source: synthetic peptide (Fmoc solid-phase synthesis)

Experiments:
Assay in all cases: ITC; 25 °C, MicroCal PEAQ-ITC; protein in the cell titrated with 19 injections of peptide
Settings in all cases: both partners purified
[1] = target: T1, PHD domain of UHRF1 (UHRF1PHD)
RBBP4 (1‐ 425) = target: T2, RBBP4 (1‐ 425) (UniProt Q09028 1-425)
T2 construct: RBBP4 residues 1-425; source: Sf9 (baculovirus), purified (Ni-NTA, Resource Q, Superdex 75)

RBBP7 (1‐ 425) = target: T3, RBBP7 (1‐ 425) (UniProt Q16576 1-425)
T3 construct: RBBP7 residues 1-425; source: Sf9 (baculovirus), purified (Ni-NTA, Resource Q, Superdex 75)
T3 sequence (Q16576 whole entry, the tested form may be a part): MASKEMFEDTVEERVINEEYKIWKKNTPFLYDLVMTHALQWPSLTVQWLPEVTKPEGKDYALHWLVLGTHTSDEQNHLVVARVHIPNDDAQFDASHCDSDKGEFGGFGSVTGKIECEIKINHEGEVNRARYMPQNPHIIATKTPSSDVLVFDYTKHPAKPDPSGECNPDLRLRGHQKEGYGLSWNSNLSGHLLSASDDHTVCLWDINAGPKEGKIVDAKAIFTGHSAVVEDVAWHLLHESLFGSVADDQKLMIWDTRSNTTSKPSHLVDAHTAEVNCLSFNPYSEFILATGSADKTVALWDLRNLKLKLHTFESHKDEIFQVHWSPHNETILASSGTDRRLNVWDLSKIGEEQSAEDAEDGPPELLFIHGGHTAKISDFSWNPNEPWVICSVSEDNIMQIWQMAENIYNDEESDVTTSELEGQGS

T2 sequence (Q09028 whole entry, the tested form may be a part): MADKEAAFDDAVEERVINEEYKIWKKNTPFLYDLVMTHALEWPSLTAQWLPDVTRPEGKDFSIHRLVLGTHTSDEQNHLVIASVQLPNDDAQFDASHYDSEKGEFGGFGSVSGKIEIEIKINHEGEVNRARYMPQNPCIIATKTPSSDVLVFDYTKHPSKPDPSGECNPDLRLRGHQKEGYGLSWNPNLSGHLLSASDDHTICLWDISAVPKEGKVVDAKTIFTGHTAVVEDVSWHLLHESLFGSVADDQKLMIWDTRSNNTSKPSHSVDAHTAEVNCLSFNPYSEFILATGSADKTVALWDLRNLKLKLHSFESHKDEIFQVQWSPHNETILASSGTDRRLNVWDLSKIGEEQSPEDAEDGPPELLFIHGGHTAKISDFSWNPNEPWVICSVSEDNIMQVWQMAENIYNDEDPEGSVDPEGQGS

Row | Binder | Kd [1] | Kd (RBBP4 (1‐ 425)) | Kd (RBBP7 (1‐ 425))
1 | B1 | 2300 nM |  | 
2 | B2 |  | ~1200 nM | 15400 nM
